Reference: patent US20250369982A1, “METHODS OF DETECTING DDR1 PHOSPHORYLATION” (IncendiaTherapeutics, Inc., priority 2022, published 2025)
Where two headings read alike, the source gives them in different places. One block for each molecule: values may come before it.

Tests used:
[1] = Pharmacokinetic profiles of anti-DDR1 mAbs in mice (ELISA of circulating antibody); type: in vivo, mouse; settings: female C57B16JrJ mice, intraperitoneal, 10 mg/kg; for Cmax: circulating free and partially bound antibody
Experimental: To evaluate the pharmacokinetic profiles of anti-DDR1 mAbs, mAbs were administered intraperitoneally to female C57B16JrJ mice at a dose of 10 mg/kg, serial blood sampling was performed over time (FIG. 4A), and ELISA was used to measure circulating free and partially bound antibody. […] Further, as shown in FIG. 4E and Table S1 below, the maximal circulating (free and partially bound) concentrations of each mAb were higher than the concentration required to bind to target (as shown by the surface plasmon resonance results of mAb binding to mouse DDR1 extracellular domain; see Table S2 below). Moreover, the maximal circulating (free and partially bound) concentrations of mAb #9H1 WT IgG1 were higher than the in vitro concentration required to inhibit Collagen I-induced phosphorylation of DDR1 in T47D cells (see FIG. 1).

DDR1 = molecular target: T1, DDR1 (Homo sapiens, UniProt Q08345); assay: Inhibition of collagen-induced DDR1 phosphorylation in T47D cells (Jess immunoassay); type: cell-based; settings: serum-starved T47D cells, 2 h pretreatment, 50 μg/ml human collagen I for 90 minutes
T1 construct: Cultured T47D breast cancer cells were serum starved for 16 hours; endogenous in cells; host or cells: T47D breast cancer cells
T1 sequence (Q08345 19-913): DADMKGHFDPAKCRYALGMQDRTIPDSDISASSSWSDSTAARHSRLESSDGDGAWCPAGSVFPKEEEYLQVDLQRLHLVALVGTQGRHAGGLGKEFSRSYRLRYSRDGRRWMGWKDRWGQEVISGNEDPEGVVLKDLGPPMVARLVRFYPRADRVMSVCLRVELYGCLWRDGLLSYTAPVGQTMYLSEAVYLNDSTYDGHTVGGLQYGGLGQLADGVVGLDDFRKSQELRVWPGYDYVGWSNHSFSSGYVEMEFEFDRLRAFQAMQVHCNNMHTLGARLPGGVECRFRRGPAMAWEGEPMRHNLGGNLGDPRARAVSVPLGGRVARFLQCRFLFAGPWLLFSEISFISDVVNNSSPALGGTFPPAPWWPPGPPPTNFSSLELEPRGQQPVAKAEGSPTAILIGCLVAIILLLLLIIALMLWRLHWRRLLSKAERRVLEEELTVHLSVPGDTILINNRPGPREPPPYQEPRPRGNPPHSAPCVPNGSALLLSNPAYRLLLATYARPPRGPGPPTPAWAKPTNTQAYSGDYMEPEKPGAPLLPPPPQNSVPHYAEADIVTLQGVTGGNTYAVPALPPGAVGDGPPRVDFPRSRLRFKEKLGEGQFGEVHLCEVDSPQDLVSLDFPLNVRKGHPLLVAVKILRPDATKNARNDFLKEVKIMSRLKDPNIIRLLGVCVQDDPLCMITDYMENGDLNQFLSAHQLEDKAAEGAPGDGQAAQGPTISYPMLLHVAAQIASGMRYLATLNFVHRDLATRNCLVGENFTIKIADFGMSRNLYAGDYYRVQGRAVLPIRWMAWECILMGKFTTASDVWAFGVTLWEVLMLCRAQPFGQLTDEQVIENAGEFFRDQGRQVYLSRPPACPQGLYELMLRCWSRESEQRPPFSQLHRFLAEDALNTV
Experimental: Cells treated with 200 nM of 2.45-IN [2-(4-Bromo-2-oxo-1′-(1H-pyrazolo[4,3-b]pyridine-5-carbonyl)spiro[indoline-3,4′-piperidin]-1-yl)-N-(2,2,2-trifluoroethyl) acetamide] were used as positive control for inhibition of DDR1 phosphorylation. Cell lysate was then analyzed via Jess immunoassay (ProteinSimple).
Serum-starved T47D cells were pretreated for two hours with increasing concentrations of monoclonal antibody or IgG control, followed by stimulation with 50 μg/ml of human collagen I for 90 minutes.

B1: #33 inert IgG1: rabbit mAb #33 heavy and light chain variable domains fused to human IgG1 constant domains; SEQ ID NOs: 23 and 24 (protein)
chain 1: ELVMTQTPASVEAAVGGTVTIKCQASETISSRLAWYQQKPGQPPKLLIYQASKLPSGVPSRFKGTGSGTEYTLTISDLECADAATYYCQGCYYGGGSFYDSAFGGGTEVVVKRTVAAPSVFIFPPSDEQLKSGTASVVCLLNNFYPREAKVQWKVDNALQSGNSQESVTEQDSKDSTYSLSSTLTLSKADYEKHKVYACEVTHQGLSSPVTKSFNRGEC
chain 2: QSVEESGGRLVTPGGSLTLTCTVSGFSLSSYDMSWVRQAPGKGLEWIGISWNSGFVDYASWAKGRFSISKTSTTVDLKITSPTTEDTATYFCARLGADDIYYFNLWGPGTLVTISSASTKGPSVFPLAPSSKSTSGGTAALGCLVKDYFPEPVTVSWNSGALTSGVHTFPAVLQSSGLYSLSSVVTVPSSSLGTQTYICNVNHKPSNTKVDKRVEPKSCDKTHTCPPCPAPEAEGAPSVFLFPPKPKDTLMISRTPEVTCVVVDVSHEDPEVKFNWYVDGVEVHNAKTKPREEQYNSTYRVVSVLTVLHQDWLNGKEYKCKVSNKALPSSIEKTISKAKGQPREPQVYTLPPSREEMTKNQVSLTCLVKGFYPSDIAVEWESNGQPENNYKTTPPVLDSDGSFFLYSKLTVDKSRWQQGNVFSCSVMHEALHNHYTQKSLSLSPGK
exposure over 168 hours (in words) [1]: comparable to expected exposures for IgG1 | tmax [1]: 48 h | Cmax [1]: 131.82 µg/mL | Cmax ([1]; read-out: Cmax): 650 nM

inhibition of collagen I-induced phosphorylation of DDR1 (in words) (DDR1): able to inhibit
B2: rabbit mAb #33: rabbit anti-DDR1 monoclonal antibody, light chain SEQ ID NO: 164, heavy chain SEQ ID NO: 165 (antibody)
heavy: QSVEESGGRLVTPGGSLTLTCTVSGFSLSSYDMSWVRQAPGKGLEWIGISWNSGFVDYASWAKGRFSISKTSTTVDLKITSPTTEDTATYFCARLGADDIYYFNLWGPGTLVTISSGQPKAPSVFPLAPCCGDTPSSTVTLGCLVKGYLPEPVTVTWNSGTLTNGVRTFPSVRQSSGLYSLSSVVSVTSSSQPVTCNVAHPATNTKVDKTVAPSTCSKPTCPPPELLGGPSVFIFPPKPKDTLMISRTPEVTCVVVDVSQDDPEVQFTWYINNEQVRTARPPLREQQFNSTIRVVSTLPIAHQDWLRGKEFKCKVHNKALPAPIEKTISKARGQPLEPKVYTMGPPREELSSRSVSLTCMINGFYPSDISVEWEKNGKAEDNYKTTPAVLDSDGSYFLYSKLSVPTSEWQRGDVFTCSVMHEALHNHYTQKSISRSPGK
light: ELVMTQTPASVEAAVGGTVTIKCQASETISSRLAWYQQKPGQPPKLLIYQASKLPSGVPSRFKGTGSGTEYTLTISDLECADAATYYCQGCYYGGGSFYDSAFGGGTEVVVKGDPVAPTVLIFPPAADQVATGTVTIVCVANKYFPDVTVTWEVDGTTQTTGIENSKTPQNSADCTYNLSSTLTLTSTQYNSHKEYTCKVTQGTTSVVQSFNRGDC
